The text below walks through data of US20200317768A1 (published 2020).

Where a chain is given by its changes, count along the chain named. In names and notes the source's numbering stands.

Test [1] has as its target T1, cynomolgus monkey FcγRIIa1 extracellular domain, C-terminal His-tag (cynomolgus monkey).
T1 construct: also called cyno FcγRIIa1; cynoFcgRIIa1; not shown: His-tag added to C-terminus
T1 chain: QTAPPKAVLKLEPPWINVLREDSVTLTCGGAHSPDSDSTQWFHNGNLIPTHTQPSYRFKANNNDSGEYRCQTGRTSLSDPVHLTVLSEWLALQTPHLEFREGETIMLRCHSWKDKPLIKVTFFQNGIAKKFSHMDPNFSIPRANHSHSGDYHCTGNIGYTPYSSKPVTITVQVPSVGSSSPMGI
The experiment in a line: SPR (BIACORE), antibody captured, FcγR analyte. How it is done:
(§1) The kinetic analysis of interactions between these antibodies and FcγR was carried out using BIACORE® T200 or BIACORE® 4000 (GE Healthcare). HBS-EP+ (GE Healthcare) was used as the running buffer, and the measurement temperature was set to 25° C. A chip produced by immobilizing Protein A. Protein A/G or mouse anti-human IgG kappa light chain (BD Biosciences) onto a Series S Sensor Chip CM4 or CM5 (GE Healthcare) by the amine-coupling method was used. […] After the measurement, the antibody captured on the chip was washed off by allowing reaction with 10 mM glycine-HCl, pH1.5 and 25 mM NaOH so that the chip was regenerated and used repeatedly. The sensorgrams obtained as measurement results were analyzed by the 1:1 Langmuir binding model using the BIACORE® Evaluation Software to calculate the binding rate constant ka (L/mol/s) and dissociation rate constant kd (l/s), and the dissociation constant KD (mol/L) was calculated from these values. […] Regarding such interactions, KD values were calculated using the following 1:1 binding model described in BIACORE® T100 Software Handbook BR1006-48 Edition AE.
A general note: In SPR one partner is held on a chip, and binding of the other changes the refractive index at the surface.

The target in test [2] is T2, cynomolgus monkey FcγRIIa2 extracellular domain, C-terminal His-tag (cynomolgus monkey).
T2 construct: also called cyno FcγRIIa2; cynoFcgRIIa2; not shown: His-tag added to C-terminus
T2 chain: T1 chain with P95T, T121A, I127K, A128S, K130N, D135N, R142Q
The experiment in a line: SPR (BIACORE), antibody captured, FcγR analyte. As for the experimental part:
as §1

In test [3] the target is T3, cynomolgus monkey FcγRIIa3 extracellular domain, C-terminal His-tag (cynomolgus monkey).
T3 construct: also called cyno FcγRIIa3; cynoFcgRIIa3; not shown: His-tag added to C-terminus
T3 chain: T1 chain with P95T, T121A, A128S, H133P, D135N
The experiment in a line: SPR (BIACORE), antibody captured, FcγR analyte. As for the experimental part: as §1

For test [4], the target named is T4, cynomolgus monkey FcγRIIb extracellular domain, C-terminal His-tag (cynomolgus monkey).
T4 construct: also called cyno FcγRIIb; cynoFcγRIIb; not shown: His-tag added to C-terminus
T4 chain: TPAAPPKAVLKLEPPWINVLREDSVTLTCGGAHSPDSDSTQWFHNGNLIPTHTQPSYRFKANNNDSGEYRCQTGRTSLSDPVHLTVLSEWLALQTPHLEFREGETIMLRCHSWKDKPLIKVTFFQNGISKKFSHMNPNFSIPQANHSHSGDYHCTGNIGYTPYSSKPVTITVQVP
The experiment in a line: SPR (BIACORE), antibody captured, FcγR analyte. How it is done:
as §1

Test [5] has as its target T5, cynomolgus monkey FcγRIIIaS extracellular domain, C-terminal His-tag (cynomolgus monkey, UniProt A3RFZ7 21-206 (rhesus entry)).
T5 construct: also called cyno FcγRIIIaS; cynoFcγRIIIaS; not shown: His-tag added to C-terminus
The experiment in a line: SPR (BIACORE), antibody captured, FcγR analyte. How it is done: as §1

The target in test [6] is T6, human FcγRIIaH extracellular domain, C-terminal His-tag (human, UniProt P12318 34-217).
T6 construct: also called human FcγRIIa (type H); FcgRIIaH; not shown: His-tag added to C-terminus
T6 sequence: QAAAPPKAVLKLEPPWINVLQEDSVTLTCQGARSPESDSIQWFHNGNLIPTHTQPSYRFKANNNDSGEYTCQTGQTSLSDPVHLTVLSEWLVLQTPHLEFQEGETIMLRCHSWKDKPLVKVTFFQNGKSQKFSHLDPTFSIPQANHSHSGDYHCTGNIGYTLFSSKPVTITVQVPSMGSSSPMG
The experiment in a line: SPR (BIACORE), antibody captured, FcγR analyte. How it is done: as §1

Test [7] addresses T7, human FcγRIIaR extracellular domain, C-terminal His-tag (human, UniProt P12318 34-217).
T7 construct: also called human FcγRIIa (type R); FcgRIIaR; not shown: His-tag added to C-terminus
T7 chain: T6 sequence with H134R
Put plainly: SPR (BIACORE), antibody captured, FcγR analyte. How it is done:
as §1

Test [8] has as its target T8, human FcγRIIb extracellular domain, C-terminal His-tag (human, UniProt P31994 43-217).
T8 construct: also called humanFcgRIIb; not shown: His-tag added to C-terminus
T8 sequence: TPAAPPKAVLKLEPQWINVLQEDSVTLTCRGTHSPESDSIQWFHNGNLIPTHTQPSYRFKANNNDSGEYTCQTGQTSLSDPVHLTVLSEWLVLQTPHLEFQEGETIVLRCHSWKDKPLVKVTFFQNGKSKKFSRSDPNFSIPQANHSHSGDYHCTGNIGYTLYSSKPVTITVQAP
Put plainly: SPR (BIACORE), antibody captured, FcγR analyte. As for the experimental part:
as §1

The target in test [9] is T9, human FcγRIIIaV extracellular domain, C-terminal His-tag (human, UniProt P08637 17-208).
T9 construct: also called FcgRIIIaV; not shown: His-tag added to C-terminus
Put plainly: SPR (BIACORE), antibody captured, FcγR analyte. How it is done:
as §1

Test [10] deals with T1, cynomolgus monkey FcγRIIa1 …. The experiment in a line: SPR (BIACORE); KD of parent SG1 / KD of variant.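 Further: relative to parent M103205H795-SG1 carrying the SG1 human heavy chain constant region.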 As for the experimental part: as §1
Test [11] concerns the target T2, cynomolgus monkey FcγRIIa2 …. The experiment in a line: SPR (BIACORE); KD of parent SG1 / KD of variant.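 Further: relative to parent M103205H795-SG1 carrying the SG1 human heavy chain constant region.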 How it is done: as §1
Test [12] concerns the target T3, cynomolgus monkey FcγRIIa3 …. The experiment in a line: SPR (BIACORE); KD of parent SG1 / KD of variant.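 Further: relative to parent M103205H795-SG1 carrying the SG1 human heavy chain constant region.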 How it is done: as §1
Test [13] deals with T4, cynomolgus monkey FcγRIIb extracellular …. The experiment in a line: SPR (BIACORE); KD of parent SG1 / KD of variant.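 Further: relative to parent M103205H795-SG1 carrying the SG1 human heavy chain constant region.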 How it is done:
as §1

Test [14] addresses T5, cynomolgus monkey FcγRIIIaS …. The experiment in a line: SPR (BIACORE); KD of parent SG1 / KD of variant. How it is done: as §1
For test [15], the target named is T6, human FcγRIIaH extracellular domain, …. The experiment in a line: SPR (BIACORE); KD of parent SG1 / KD of variant. As for the experimental part: as §1
For test [16], the target named is T7, human FcγRIIaR extracellular domain, …. Put plainly: SPR (BIACORE); KD of parent SG1 / KD of variant. How it is done:
as §1

Test [17] concerns the target T8, human FcγRIIb extracellular domain, …. Put plainly: SPR (BIACORE); KD of parent SG1 / KD of variant. As for the experimental part: as §1
The target of test [18] is T9, human FcγRIIIaV extracellular domain, …. The experiment in a line: SPR (BIACORE); KD of parent SG1 / KD of variant. As for the experimental part: as §1

For orientation: Kd means the concentration at which binding is half-saturated.

T9 sequence (P08637 17-208 F176V): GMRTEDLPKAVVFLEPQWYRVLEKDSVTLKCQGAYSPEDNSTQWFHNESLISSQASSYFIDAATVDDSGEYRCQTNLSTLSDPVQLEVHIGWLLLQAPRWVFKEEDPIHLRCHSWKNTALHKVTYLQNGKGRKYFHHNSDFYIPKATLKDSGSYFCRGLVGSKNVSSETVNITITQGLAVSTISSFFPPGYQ
T5 sequence (A3RFZ7 21-206): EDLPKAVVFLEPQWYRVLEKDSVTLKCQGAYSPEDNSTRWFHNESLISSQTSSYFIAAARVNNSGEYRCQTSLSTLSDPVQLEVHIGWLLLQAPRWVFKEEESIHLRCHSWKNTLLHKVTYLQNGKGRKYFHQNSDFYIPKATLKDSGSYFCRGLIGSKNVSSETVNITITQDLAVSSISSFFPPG

B1: M103205H795-SG1033 / M103202L889-SK1 (antibody, human IgG1, kappa)
heavy: QVTLKESGPVLVKPTETLTLTCTVSGIDLSHDDISWVRQAPGKGLEWVGIISYAGSTYYASWAKGRLTISKDTSKNQVVLTMTNMDPVDTATYYCARGVPAYSHGGDLWGQGTLVTVSSASTKGPSVFPLAPSSKSTSGGTAALGCLVKDYFPEPVTVSWNSGALTSGVHTFPAVLQSSGLYSLSSVVTVPSSSLGTQTYICNVNHKPSNTKVDKKVEPKSCDKTHTCPPCPAPELLNGPSVFLFPPKPKDTLMISRTPEVTCVVVDVSDEDPEVKFNWYVDGVEVHNAKTKPREEQYNSTYRVVSVLTVLHQDWLNGKEYKCKVSNKALPKPIEKTISKAKGQPREPQVYTLPPSREEMTKNQVSLTCLVKGFYPSDIAVEWESNGQPENNYKTTPPVLDSDGSFFLYSKLTVDKSRWQQGNVFSCSVMHEALHAHYTQKSLSLSP
light: DIVMTQSPATLSLSPGERATLSCTSSQSVYHANWLSWFQQKPGQPPKLLIYWASTLAYGVPSRFSGSGSGTDFTLTISSLQPEDAATYYCAGGYGGGRYAFGQGTKVEIKRTVAAPSVFIFPPSDEQLKSGTASVVCLLNNFYPREAKVQWKVDNALQSGNSQESVTEQDSKDSTYSLSSTLTLSKADYEKHKVYACEVTHQGLSSPVTKSFNRGEC
notes: CH with G236N/H268D/A330K/N434A against SG1 (EU numbering); also called MS1032LO06-SG1033
Consider B1, for which the Kd in test [1] amounted to 1800 nM; in test [2] it was 1500 nM; in test [3] it was 3000 nM; in test [4], 500 nM; in test [5] it was 4400 nM; in [6] it was 1200 nM. In addition, the Kd in test [7] amounted to 1000 nM; in test [8], 1200 nM; in test [9] it was 12000 nM. The “KD fold (SG1 = 1)” value turned out to be 2.6 fold in test [10]; 3 fold in [11]; 2.9 fold in [12]; 3.9 fold in test [13]; 0.06 fold in [14]; 0.7 fold in test [15]. Besides, the “KD fold (SG1 = 1)” value was found to be 1 fold in test [16], 3.9 fold in test [17] and 0.05 fold in [18].

B2: MS_M103240H795-SG1/M103202L1045-SK1 (antibody, human IgG1, kappa)
heavy: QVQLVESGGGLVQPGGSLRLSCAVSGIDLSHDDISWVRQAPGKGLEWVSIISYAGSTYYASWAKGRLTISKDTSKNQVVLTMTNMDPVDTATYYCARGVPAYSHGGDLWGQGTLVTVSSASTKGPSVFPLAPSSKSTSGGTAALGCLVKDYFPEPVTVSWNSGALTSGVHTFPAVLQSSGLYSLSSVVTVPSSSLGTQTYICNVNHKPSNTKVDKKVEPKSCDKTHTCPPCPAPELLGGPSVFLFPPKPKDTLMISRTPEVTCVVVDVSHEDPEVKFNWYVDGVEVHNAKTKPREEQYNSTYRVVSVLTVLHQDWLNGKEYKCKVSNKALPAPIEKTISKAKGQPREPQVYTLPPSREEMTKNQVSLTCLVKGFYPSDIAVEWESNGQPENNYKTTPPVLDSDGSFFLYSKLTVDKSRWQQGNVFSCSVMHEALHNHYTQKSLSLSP
light: B1 light with S25T, A32E
notes: Parent of the MS1032LO19 Fc variants; also called MS1032LO19-SG1; MS103240H795-SG1
On to B2, for which the Kd in test [1] came out at 8800 nM; in test [2], 4100 nM; in test [3], 6600 nM; in [4], 1700 nM; in [5], 260 nM; in test [6], 970 nM. Besides, the Kd in [7] is 960 nM; in test [8], 3800 nM; in test [9], 580 nM. The “KD fold (SG1 = 1)” value in [10], in [11], in test [12], in test [13], in test [14] and in [15] was 1 fold in each case. Also, the “KD fold (SG1 = 1)” value in test [16], in test [17] and in test [18] was 1 fold each time.

B3: M103205H795-SG1034 / M103202L889-SK1 (antibody, human IgG1, kappa)
heavy: B1 heavy with N238T, Q313R, D415K
light: B1 light
notes: CH with G236T/H268D/Q311R/A330K/D413K/N434A against SG1 (EU numbering); also called MS1032LO06-SG1034
In the case of B3, the Kd stood at 8100 nM in test [1]; 2700 nM in test [2]; 4200 nM in [3]; 880 nM in [4]; 2200 nM in test [5]; 810 nM in test [6]. Also, the Kd is 250 nM in [7], 2600 nM in [8] and 7100 nM in test [9]. Besides, the “KD fold (SG1 = 1)” value worked out at 1.5 fold in test [10]; 1.7 fold in [11]; 2 fold in test [12]; 2.2 fold in test [13]; 0.15 fold in test [14]; 2.9 fold in [15]. In addition, the figures for the “KD fold (SG1 = 1)” value in test [16], in test [17] and in [18] were 4.1 fold, 1.8 fold and 0.09 fold, respectively.
